Laboratory results published in US20070232789A1 (UNIVERSITY OF MARYLAND BALTIMORE, published 2007).

T1: A1/A3-C1-C2 heterodimer of factor VIII, plasma-derived (human, UniProt P00451 20-391; P00451 1709-2351)
T1 sequence 1: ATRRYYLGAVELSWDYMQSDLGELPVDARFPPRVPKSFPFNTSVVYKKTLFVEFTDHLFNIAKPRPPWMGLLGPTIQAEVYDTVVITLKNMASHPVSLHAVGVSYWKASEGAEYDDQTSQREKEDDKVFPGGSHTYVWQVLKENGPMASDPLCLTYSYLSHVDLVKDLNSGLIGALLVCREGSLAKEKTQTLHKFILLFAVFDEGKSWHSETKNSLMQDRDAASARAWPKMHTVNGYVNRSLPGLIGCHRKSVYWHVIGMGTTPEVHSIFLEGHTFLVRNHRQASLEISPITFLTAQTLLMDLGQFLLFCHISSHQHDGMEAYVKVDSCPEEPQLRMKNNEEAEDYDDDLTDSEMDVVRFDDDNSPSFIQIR
T1 sequence 2: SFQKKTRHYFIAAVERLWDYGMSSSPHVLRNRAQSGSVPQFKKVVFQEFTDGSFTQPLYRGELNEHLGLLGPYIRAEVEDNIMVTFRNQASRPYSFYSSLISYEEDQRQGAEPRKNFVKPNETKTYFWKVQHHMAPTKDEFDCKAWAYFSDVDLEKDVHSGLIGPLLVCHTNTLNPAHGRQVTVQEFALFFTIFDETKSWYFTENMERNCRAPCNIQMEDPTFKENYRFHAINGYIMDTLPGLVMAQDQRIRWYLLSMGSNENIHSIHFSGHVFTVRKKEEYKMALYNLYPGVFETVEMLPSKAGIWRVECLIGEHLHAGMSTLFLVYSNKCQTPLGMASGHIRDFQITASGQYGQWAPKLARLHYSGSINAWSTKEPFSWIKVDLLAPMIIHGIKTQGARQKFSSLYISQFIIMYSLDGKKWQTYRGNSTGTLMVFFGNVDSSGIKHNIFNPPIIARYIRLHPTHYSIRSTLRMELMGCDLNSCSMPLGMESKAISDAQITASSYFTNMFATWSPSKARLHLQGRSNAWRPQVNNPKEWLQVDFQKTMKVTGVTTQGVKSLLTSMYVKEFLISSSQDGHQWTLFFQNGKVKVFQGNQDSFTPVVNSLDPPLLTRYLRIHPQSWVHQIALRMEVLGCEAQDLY


How the values were obtained:
[1] = target: T1, A1/A3-C1-C2 heterodimer of factor VIII, …; assay: cell-based or functional assay
[2] = target: T2, low-density lipoprotein receptor-related protein (LRP), purified (human, UniProt Q07954 20-4544); assay: SPR, BIAcore 3000, one-site model, KD = koff/kon
T2 construct: mature; also called low density lipoprotein receptor-related protein/α2-macroglobulin receptor; LRP receptor
Description: Surface plasmon resonance-based binding assay. […] This system allows real-time biomolecular interaction analysis (BIA) using surface plasmon resonance (SPR) technology. One molecule (the ligand) is usually immobilized on the surface of the sensor chip; the second molecule (the analyte) in solution is passed over the chip under conditions of continuous flow, and the amount of the bound analyte is detected by the system. SPR is a non-invasive optical measuring technique which measures the mass concentration of biomolecules in close proximity to the sensor chip where association and dissociation of biomolecular complexes occurs. […] The association (kₒₙ) and dissociation (koff) rate constants were determined using BIAevaluation Version 3.1 software. The data were corrected for bulk refraction index changes and fitted to a one-site binding model by a non-linear regression analysis Equilibrium dissociation constants (KD) were calculated from the ratio koff/kₒₙ.

T2 sequence (Q07954 20-4544, form in doubt): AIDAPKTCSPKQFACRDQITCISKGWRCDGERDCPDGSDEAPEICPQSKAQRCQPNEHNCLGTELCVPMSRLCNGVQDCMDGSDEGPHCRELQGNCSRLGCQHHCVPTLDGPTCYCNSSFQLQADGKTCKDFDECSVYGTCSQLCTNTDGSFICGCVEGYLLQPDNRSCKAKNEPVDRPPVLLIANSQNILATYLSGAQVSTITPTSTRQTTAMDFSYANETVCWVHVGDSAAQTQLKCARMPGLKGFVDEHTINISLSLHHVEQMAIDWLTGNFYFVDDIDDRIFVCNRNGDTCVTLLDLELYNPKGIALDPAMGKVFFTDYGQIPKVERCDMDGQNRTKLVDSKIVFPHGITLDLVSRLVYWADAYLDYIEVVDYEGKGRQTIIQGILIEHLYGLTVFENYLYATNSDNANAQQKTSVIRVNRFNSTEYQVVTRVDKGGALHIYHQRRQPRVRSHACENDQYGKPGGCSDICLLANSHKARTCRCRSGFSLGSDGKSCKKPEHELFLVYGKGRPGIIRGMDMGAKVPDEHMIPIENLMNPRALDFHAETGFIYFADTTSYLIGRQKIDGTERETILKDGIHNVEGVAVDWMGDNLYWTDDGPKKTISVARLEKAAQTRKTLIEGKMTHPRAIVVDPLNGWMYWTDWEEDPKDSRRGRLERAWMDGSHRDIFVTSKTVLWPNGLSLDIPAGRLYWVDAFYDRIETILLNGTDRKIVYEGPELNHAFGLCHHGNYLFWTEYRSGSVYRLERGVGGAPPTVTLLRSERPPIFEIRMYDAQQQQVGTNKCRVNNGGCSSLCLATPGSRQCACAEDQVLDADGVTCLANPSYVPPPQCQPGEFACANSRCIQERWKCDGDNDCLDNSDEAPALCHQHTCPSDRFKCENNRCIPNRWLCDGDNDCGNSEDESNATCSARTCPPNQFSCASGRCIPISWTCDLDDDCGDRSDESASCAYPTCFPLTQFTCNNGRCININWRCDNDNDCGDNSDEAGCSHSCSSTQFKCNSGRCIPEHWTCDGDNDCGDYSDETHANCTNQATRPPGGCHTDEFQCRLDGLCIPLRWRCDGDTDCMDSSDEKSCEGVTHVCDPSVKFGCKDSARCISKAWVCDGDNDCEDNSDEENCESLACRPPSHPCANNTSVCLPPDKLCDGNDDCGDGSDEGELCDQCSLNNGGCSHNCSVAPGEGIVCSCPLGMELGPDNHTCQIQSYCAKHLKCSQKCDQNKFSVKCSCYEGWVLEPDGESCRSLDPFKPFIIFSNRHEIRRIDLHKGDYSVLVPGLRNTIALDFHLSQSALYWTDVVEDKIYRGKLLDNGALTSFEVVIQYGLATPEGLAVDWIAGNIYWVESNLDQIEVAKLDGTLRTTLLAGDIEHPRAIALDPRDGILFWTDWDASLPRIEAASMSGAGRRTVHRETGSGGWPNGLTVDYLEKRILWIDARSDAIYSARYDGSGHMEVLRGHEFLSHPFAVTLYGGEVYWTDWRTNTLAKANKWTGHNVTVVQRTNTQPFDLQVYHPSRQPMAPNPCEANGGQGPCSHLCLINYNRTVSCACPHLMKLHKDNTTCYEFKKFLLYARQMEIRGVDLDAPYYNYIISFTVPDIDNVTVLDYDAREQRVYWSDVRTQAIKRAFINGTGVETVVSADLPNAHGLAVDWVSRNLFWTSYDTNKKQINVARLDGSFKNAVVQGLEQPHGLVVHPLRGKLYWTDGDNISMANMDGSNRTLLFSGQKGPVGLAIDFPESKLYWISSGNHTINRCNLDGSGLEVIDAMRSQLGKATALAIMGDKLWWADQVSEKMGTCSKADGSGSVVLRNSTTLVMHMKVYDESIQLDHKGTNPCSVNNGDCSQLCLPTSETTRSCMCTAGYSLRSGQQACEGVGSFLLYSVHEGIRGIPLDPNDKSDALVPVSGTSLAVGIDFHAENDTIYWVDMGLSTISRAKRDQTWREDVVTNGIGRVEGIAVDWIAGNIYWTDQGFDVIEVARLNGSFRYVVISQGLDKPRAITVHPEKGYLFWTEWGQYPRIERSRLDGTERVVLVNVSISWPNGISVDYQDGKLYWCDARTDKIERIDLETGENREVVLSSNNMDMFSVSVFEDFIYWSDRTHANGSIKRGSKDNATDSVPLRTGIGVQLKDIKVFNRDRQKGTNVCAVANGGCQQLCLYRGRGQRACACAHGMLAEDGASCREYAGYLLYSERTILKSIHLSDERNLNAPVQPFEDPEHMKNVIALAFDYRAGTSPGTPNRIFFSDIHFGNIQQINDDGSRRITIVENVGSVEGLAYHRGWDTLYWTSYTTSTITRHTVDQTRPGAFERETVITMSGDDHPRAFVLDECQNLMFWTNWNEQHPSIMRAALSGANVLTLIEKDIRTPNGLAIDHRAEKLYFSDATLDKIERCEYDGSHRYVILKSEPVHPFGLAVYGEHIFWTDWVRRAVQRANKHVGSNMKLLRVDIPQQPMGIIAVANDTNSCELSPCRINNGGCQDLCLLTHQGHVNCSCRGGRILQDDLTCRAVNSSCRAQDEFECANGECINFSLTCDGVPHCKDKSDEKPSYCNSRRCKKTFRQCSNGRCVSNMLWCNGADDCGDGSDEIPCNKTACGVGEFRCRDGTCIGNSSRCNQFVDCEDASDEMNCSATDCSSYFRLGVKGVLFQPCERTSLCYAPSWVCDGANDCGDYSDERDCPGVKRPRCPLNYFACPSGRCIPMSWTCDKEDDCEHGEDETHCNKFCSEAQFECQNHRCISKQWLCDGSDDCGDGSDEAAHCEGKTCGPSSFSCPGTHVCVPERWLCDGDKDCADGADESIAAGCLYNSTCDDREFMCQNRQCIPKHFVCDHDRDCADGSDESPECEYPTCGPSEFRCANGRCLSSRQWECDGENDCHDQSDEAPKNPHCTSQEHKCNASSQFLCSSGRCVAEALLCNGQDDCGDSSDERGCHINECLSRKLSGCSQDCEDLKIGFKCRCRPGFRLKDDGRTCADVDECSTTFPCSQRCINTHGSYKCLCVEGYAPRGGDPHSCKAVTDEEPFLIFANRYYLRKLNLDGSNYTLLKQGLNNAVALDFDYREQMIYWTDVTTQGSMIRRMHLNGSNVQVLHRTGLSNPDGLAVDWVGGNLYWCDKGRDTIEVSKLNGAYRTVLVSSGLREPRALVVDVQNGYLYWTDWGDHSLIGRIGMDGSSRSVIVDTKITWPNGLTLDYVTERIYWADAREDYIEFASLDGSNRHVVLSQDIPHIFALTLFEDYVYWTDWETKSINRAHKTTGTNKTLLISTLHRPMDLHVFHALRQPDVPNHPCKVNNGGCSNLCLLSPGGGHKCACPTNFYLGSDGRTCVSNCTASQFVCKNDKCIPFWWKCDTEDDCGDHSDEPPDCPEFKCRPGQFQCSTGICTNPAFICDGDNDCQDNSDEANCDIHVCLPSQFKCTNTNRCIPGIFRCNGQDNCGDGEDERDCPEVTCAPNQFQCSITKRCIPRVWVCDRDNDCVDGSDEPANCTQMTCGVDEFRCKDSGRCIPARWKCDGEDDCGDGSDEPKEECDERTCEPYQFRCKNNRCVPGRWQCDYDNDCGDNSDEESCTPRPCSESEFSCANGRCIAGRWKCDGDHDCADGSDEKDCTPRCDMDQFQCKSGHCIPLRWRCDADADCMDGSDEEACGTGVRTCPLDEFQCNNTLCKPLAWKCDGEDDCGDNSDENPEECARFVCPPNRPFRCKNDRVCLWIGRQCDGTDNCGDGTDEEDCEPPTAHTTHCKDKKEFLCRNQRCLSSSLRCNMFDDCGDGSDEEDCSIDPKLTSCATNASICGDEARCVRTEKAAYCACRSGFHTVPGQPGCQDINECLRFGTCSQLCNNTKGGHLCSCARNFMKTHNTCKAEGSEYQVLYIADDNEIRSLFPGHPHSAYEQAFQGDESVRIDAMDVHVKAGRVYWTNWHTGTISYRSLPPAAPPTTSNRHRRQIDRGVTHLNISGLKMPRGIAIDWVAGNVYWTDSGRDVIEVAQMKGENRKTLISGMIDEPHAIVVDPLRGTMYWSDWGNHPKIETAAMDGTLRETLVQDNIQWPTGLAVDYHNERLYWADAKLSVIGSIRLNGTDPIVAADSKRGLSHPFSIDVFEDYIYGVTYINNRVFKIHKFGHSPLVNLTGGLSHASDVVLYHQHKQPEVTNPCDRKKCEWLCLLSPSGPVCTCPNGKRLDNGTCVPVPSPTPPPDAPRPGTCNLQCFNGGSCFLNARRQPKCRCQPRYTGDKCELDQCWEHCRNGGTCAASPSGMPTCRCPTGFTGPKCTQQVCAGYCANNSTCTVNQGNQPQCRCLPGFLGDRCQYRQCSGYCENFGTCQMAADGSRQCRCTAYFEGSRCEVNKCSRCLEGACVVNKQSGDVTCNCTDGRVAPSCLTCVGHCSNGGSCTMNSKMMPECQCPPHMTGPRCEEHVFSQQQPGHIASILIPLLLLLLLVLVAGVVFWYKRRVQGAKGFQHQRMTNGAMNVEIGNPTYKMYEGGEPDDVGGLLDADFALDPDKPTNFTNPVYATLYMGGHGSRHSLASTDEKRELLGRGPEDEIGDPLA

| Binder | Activity of reconstituted FVIIIa (% of wt activity) [1] | Kd [2] [nM] |
| --- | --- | --- |
| recombinant wild-type A2 domain of human factor VIII (hx-A2) (other, Secreted from Sf9 cells as hx-A2 and purified on mAb 8860; Removal of the tag is not reported; also called wt-A2; recombinant A2; not shown: N-terminal hx leader (6xHis tag, vector-derived linker, factor Xa site)) SGAKKHPKTWVHYIAAEEEDWDYAPLVLAPDDRSYKSQYLNNGPQRIGRKYKKVRFMAYTDETFKTREAIQHESGILGPLLYGEVGDTLLIIFKNQASRPYNIYPHGITDVRPLYSRRLPKGVKHLKDFPILPGEIFKYKWTVTVEDGPTKSDPRCLTRYYSSFVNMERDLASGLIGPLLICYKESVDQRGNQIMSDKRNVILFSVFDENRSWYLTENIQRFLPNPAGVQLEDPEFQASNIMHSINGYVFDSLQLSVCLHEVAYWYILSIGAQTDFLSVFFSGYTFKHKMVYEDTLTLFPFSGETVFMSMENPGLWILGCHNSDFRNRGMTALLKVSSCDKNTGDYYEDSYEDISAYLLSKNNAIEPR | 100 % of wt activity | 21 |
| recombinant A2 mutant #14 (Lys-496 to Ala) (other, hx-A2 form from Sf9 cells) SGAKKHPKTWVHYIAAEEEDWDYAPLVLAPDDRSYKSQYLNNGPQRIGRKYKKVRFMAYTDETFKTREAIQHESGILGPLLYGEVGDTLLIIFKNQASRPYNIYPHGITDVRPLYSRRLPKGVAHLKDFPILPGEIFKYKWTVTVEDGPTKSDPRCLTRYYSSFVNMERDLASGLIGPLLICYKESVDQRGNQIMSDKRNVILFSVFDENRSWYLTENIQRFLPNPAGVQLEDPEFQASNIMHSINGYVFDSLQLSVCLHEVAYWYILSIGAQTDFLSVFFSGYTFKHKMVYEDTLTLFPFSGETVFMSMENPGLWILGCHNSDFRNRGMTALLKVSSCDKNTGDYYEDSYEDISAYLLSKNNAIEPR | 263 % of wt activity | 9.5 |
| recombinant A2 mutant #1 (Lys-376 to Ala) (other, hx-A2 form from Sf9 cells; not shown: N-terminal hx leader (6xHis tag, vector-derived linker, factor Xa site)) SGAAKHPKTWVHYIAAEEEDWDYAPLVLAPDDRSYKSQYLNNGPQRIGRKYKKVRFMAYTDETFKTREAIQHESGILGPLLYGEVGDTLLIIFKNQASRPYNIYPHGITDVRPLYSRRLPKGVKHLKDFPILPGEIFKYKWTVTVEDGPTKSDPRCLTRYYSSFVNMERDLASGLIGPLLICYKESVDQRGNQIMSDKRNVILFSVFDENRSWYLTENIQRFLPNPAGVQLEDPEFQASNIMHSINGYVFDSLQLSVCLHEVAYWYILSIGAQTDFLSVFFSGYTFKHKMVYEDTLTLFPFSGETVFMSMENPGLWILGCHNSDFRNRGMTALLKVSSCDKNTGDYYEDSYEDISAYLLSKNNAIEPR | 73.9 % of wt activity | 25.5 |
| recombinant A2 mutant #15 (His-497 to Ala) (other, hx-A2 form from Sf9 cells) SGAKKHPKTWVHYIAAEEEDWDYAPLVLAPDDRSYKSQYLNNGPQRIGRKYKKVRFMAYTDETFKTREAIQHESGILGPLLYGEVGDTLLIIFKNQASRPYNIYPHGITDVRPLYSRRLPKGVKALKDFPILPGEIFKYKWTVTVEDGPTKSDPRCLTRYYSSFVNMERDLASGLIGPLLICYKESVDQRGNQIMSDKRNVILFSVFDENRSWYLTENIQRFLPNPAGVQLEDPEFQASNIMHSINGYVFDSLQLSVCLHEVAYWYILSIGAQTDFLSVFFSGYTFKHKMVYEDTLTLFPFSGETVFMSMENPGLWILGCHNSDFRNRGMTALLKVSSCDKNTGDYYEDSYEDISAYLLSKNNAIEPR | 242 % of wt activity | 51 |
| recombinant A2 mutant #17 (Lys-510 to Ala) (other, hx-A2 form from Sf9 cells; not shown: N-terminal hx leader (6xHis tag, vector-derived linker, factor Xa site)) SGAKKHPKTWVHYIAAEEEDWDYAPLVLAPDDRSYKSQYLNNGPQRIGRKYKKVRFMAYTDETFKTREAIQHESGILGPLLYGEVGDTLLIIFKNQASRPYNIYPHGITDVRPLYSRRLPKGVKHLKDFPILPGEIFAYKWTVTVEDGPTKSDPRCLTRYYSSFVNMERDLASGLIGPLLICYKESVDQRGNQIMSDKRNVILFSVFDENRSWYLTENIQRFLPNPAGVQLEDPEFQASNIMHSINGYVFDSLQLSVCLHEVAYWYILSIGAQTDFLSVFFSGYTFKHKMVYEDTLTLFPFSGETVFMSMENPGLWILGCHNSDFRNRGMTALLKVSSCDKNTGDYYEDSYEDISAYLLSKNNAIEPR | 91.5 % of wt activity | 29 |

More lines, now with the values ahead:

| Activity of reconstituted FVIIIa (% of wt activity) [1] | Kd [2] [nM] | Binder |
| --- | --- | --- |
| 267 % of wt activity | 18 | recombinant A2 mutant #13 (Lys-493 to Ala) (other, hx-A2 form from Sf9 cells) SGAKKHPKTWVHYIAAEEEDWDYAPLVLAPDDRSYKSQYLNNGPQRIGRKYKKVRFMAYTDETFKTREAIQHESGILGPLLYGEVGDTLLIIFKNQASRPYNIYPHGITDVRPLYSRRLPAGVKHLKDFPILPGEIFKYKWTVTVEDGPTKSDPRCLTRYYSSFVNMERDLASGLIGPLLICYKESVDQRGNQIMSDKRNVILFSVFDENRSWYLTENIQRFLPNPAGVQLEDPEFQASNIMHSINGYVFDSLQLSVCLHEVAYWYILSIGAQTDFLSVFFSGYTFKHKMVYEDTLTLFPFSGETVFMSMENPGLWILGCHNSDFRNRGMTALLKVSSCDKNTGDYYEDSYEDISAYLLSKNNAIEPR |
| 232 % of wt activity | 67 | recombinant A2 mutant #9 (Ser-488 to Ala) (other, hx-A2 form from Sf9 cells) SGAKKHPKTWVHYIAAEEEDWDYAPLVLAPDDRSYKSQYLNNGPQRIGRKYKKVRFMAYTDETFKTREAIQHESGILGPLLYGEVGDTLLIIFKNQASRPYNIYPHGITDVRPLYARRLPKGVKHLKDFPILPGEIFKYKWTVTVEDGPTKSDPRCLTRYYSSFVNMERDLASGLIGPLLICYKESVDQRGNQIMSDKRNVILFSVFDENRSWYLTENIQRFLPNPAGVQLEDPEFQASNIMHSINGYVFDSLQLSVCLHEVAYWYILSIGAQTDFLSVFFSGYTFKHKMVYEDTLTLFPFSGETVFMSMENPGLWILGCHNSDFRNRGMTALLKVSSCDKNTGDYYEDSYEDISAYLLSKNNAIEPR |
| 151 % of wt activity | 59 | recombinant A2 mutant #11 (Arg-490 to Ala) (other, hx-A2 form from Sf9 cells) SGAKKHPKTWVHYIAAEEEDWDYAPLVLAPDDRSYKSQYLNNGPQRIGRKYKKVRFMAYTDETFKTREAIQHESGILGPLLYGEVGDTLLIIFKNQASRPYNIYPHGITDVRPLYSRALPKGVKHLKDFPILPGEIFKYKWTVTVEDGPTKSDPRCLTRYYSSFVNMERDLASGLIGPLLICYKESVDQRGNQIMSDKRNVILFSVFDENRSWYLTENIQRFLPNPAGVQLEDPEFQASNIMHSINGYVFDSLQLSVCLHEVAYWYILSIGAQTDFLSVFFSGYTFKHKMVYEDTLTLFPFSGETVFMSMENPGLWILGCHNSDFRNRGMTALLKVSSCDKNTGDYYEDSYEDISAYLLSKNNAIEPR |
| 518 % of wt activity | 21 | recombinant A2 mutant #12 (Leu-491 to Ala) (other, hx-A2 form from Sf9 cells) SGAKKHPKTWVHYIAAEEEDWDYAPLVLAPDDRSYKSQYLNNGPQRIGRKYKKVRFMAYTDETFKTREAIQHESGILGPLLYGEVGDTLLIIFKNQASRPYNIYPHGITDVRPLYSRRAPKGVKHLKDFPILPGEIFKYKWTVTVEDGPTKSDPRCLTRYYSSFVNMERDLASGLIGPLLICYKESVDQRGNQIMSDKRNVILFSVFDENRSWYLTENIQRFLPNPAGVQLEDPEFQASNIMHSINGYVFDSLQLSVCLHEVAYWYILSIGAQTDFLSVFFSGYTFKHKMVYEDTLTLFPFSGETVFMSMENPGLWILGCHNSDFRNRGMTALLKVSSCDKNTGDYYEDSYEDISAYLLSKNNAIEPR |
| 128 % of wt activity | 33 | recombinant A2 mutant #16 (His-499 to Ala as printed in Tables 1 and 2; Lys^499 in the text) (other, hx-A2 form from Sf9 cells; also called Lys^499 Ala mutant; not shown: N-terminal hx leader (6xHis tag, vector-derived linker, factor Xa site)) SGAKKHPKTWVHYIAAEEEDWDYAPLVLAPDDRSYKSQYLNNGPQRIGRKYKKVRFMAYTDETFKTREAIQHESGILGPLLYGEVGDTLLIIFKNQASRPYNIYPHGITDVRPLYSRRLPKGVKHLADFPILPGEIFKYKWTVTVEDGPTKSDPRCLTRYYSSFVNMERDLASGLIGPLLICYKESVDQRGNQIMSDKRNVILFSVFDENRSWYLTENIQRFLPNPAGVQLEDPEFQASNIMHSINGYVFDSLQLSVCLHEVAYWYILSIGAQTDFLSVFFSGYTFKHKMVYEDTLTLFPFSGETVFMSMENPGLWILGCHNSDFRNRGMTALLKVSSCDKNTGDYYEDSYEDISAYLLSKNNAIEPR |
